From publication PMC2877719 come the findings set out here.

For assay [1], the target named is full-length hEAG1 with mutated BD-C2 (F714S, F717S) labeled with Cerulean (human) (UniProt O95259). Kind of assay: FRET or BRET; acceptor photobleaching FRET in co-transfected HEK-293 cells; Cerulean on hEAG1 (donor), YFP on CaM (acceptor); 1 uM ionomycin in Ca2+- and Mg2+-free Ringer solution with 1 mM EGTA (-Ca2+), 10 min at 37 C, then fixed with 4% formaldehyde. Background: In BRET a luciferase serves as donor, and the signal depends on an acceptor being close.

Assay [2] deals with full-length hEAG1 labeled with Cerulean (human) (UniProt O95259). Described as above.
Assay [3] deals with full-length hEAG1 with mutated BD-C2 (F714S, F717S) labeled with Cerulean (human) (UniProt O95259). Kind of assay: FRET or BRET; acceptor photobleaching FRET in co-transfected HEK-293 cells; Cerulean on hEAG1 (donor), YFP on CaM (acceptor); 1 uM ionomycin in Ringer solution with 1.8 mM CaCl2 (+Ca2+), 10 min at 37 C, then fixed with 4% formaldehyde.
Assay [4] addresses C-terminus of hEAG1 (M478-S962) labeled with Cerulean (human) (UniProt O95259). Described as above.
For assay [5], the target named is full-length hEAG1 labeled with Cerulean (human) (UniProt O95259). Described as above.
Assay [6] deals with full-length hEAG1 mutated in BD-N (F151S, A152S) labeled with Cerulean (human) (UniProt O95259). The assay is described as above.
Chain of full-length hEAG1 mutated in BD-N (F151S, A152S) labeled with Cerulean (human) (O95259 other isoform, or with tags, fused parts or gaps F151S | A152S | F151S A152S): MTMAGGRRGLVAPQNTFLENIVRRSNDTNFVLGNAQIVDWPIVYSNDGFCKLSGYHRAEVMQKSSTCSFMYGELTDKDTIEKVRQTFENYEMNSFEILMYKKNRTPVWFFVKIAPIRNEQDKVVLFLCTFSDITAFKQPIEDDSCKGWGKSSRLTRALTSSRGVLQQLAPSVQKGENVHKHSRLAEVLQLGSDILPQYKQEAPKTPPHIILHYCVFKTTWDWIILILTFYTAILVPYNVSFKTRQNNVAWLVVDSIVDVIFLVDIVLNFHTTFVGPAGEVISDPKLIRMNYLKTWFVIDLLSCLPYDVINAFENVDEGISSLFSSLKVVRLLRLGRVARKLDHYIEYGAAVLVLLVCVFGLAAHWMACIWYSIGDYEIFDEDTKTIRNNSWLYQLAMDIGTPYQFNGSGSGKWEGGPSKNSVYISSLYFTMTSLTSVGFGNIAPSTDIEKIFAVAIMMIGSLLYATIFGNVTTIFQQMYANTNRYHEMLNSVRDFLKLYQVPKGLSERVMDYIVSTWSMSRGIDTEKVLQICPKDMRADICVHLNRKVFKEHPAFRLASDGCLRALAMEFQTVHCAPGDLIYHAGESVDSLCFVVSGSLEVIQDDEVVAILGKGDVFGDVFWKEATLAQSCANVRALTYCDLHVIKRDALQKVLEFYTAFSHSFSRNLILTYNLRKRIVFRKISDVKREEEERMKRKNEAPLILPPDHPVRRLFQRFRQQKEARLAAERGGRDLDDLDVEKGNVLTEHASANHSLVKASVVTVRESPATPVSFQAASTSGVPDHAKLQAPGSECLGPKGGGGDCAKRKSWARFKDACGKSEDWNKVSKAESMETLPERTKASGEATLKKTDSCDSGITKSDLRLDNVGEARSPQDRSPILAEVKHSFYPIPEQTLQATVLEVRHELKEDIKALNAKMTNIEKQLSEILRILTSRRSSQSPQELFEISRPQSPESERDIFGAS

Chain of full-length hEAG1 labeled with Cerulean (human) (O95259 other isoform, or with tags, fused parts or gaps): as the sequence (O95259 other isoform, or with tags, fused parts or gaps F151S | A152S | F151S A152S) above, with S151F, S152A counted along it
Chain of full-length hEAG1 with mutated BD-C2 (F714S, F717S) labeled with Cerulean (human) (O95259 other isoform, or with tags, fused parts or gaps F714S | F717S | F714S F717S): as the sequence (O95259 other isoform, or with tags, fused parts or gaps F151S | A152S | F151S A152S) above, with S151F, S152A, F714S, F717S counted along it
Chain of C-terminus of hEAG1 (M478-S962) labeled with Cerulean (human) (O95259 505-989): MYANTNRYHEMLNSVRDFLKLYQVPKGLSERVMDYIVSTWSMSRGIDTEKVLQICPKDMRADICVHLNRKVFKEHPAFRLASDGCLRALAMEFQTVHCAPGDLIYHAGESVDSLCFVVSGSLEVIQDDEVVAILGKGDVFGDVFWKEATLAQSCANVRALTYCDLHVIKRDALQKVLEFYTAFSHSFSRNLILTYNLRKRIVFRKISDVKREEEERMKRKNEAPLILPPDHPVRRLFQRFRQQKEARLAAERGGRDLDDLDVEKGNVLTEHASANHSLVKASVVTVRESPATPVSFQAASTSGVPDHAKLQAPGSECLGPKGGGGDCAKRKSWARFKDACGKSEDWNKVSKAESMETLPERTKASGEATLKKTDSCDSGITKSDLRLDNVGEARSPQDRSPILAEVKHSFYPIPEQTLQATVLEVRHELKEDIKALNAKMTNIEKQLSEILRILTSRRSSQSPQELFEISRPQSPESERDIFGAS

With “N-terminally YFP-labeled calmodulin (rat calmodulin II) (from UniProt P0DP30 1-149) (natural protein)”, the FRET efficiency was 11.5% in assay [1]; 10.1% in assay [2]; 8.7% in assay [3]; 17% in assay [5]; 9.8% in assay [6]. The mean FRET efficiency in assay [4] is 9.5%.
